Measurements published in publication PMC6325624, “A novel isoprimeverose‐producing enzyme from Phaeoacremonium minimum is active with low concentrations of xyloglucan oligosaccharides” (FEBS Open Bio, 2018).

What was measured:
[1] = system: OC[C@@H](O)[C@@H](O[C@@H]1O[C@H](CO[C@H]2OC[C@@H](O)[C@H](O)[C@H]2O)[C@@H](O[C@@H]2O[C@H](CO[C@H]3OC[C@@H](O)[C@H](O)[C@H]3O)[C@@H](O[C@@H]3O[C@H](CO[C@H]4OC[C@@H](O)[C@H](O)[C@H]4O)[C@@H](O)[C@H](O)[C@H]3O)[C@H](O)[C@H]2O)[C@H](O)[C@H]1O)[C@H](O)[C@@H](O)CO; assay: bicinchoninate reducing-sugar assay, Michaelis-Menten nonlinear regression; format: biochemical, Aspergillus oryzae; conditions: 50 mM sodium phosphate pH 4.5, 60 °C, 5 min, 0.0625-4 mM substrate
From the text: bicinchoninate reducing-sugar assay, Michaelis-Menten nonlinear regression on IpeA

[2] = substrate: OC[C@@H](O)[C@@H](O[C@@H]1O[C@H](CO[C@H]2OC[C@@H](O)[C@H](O)[C@H]2O)[C@@H](O[C@@H]2O[C@H](CO[C@H]3OC[C@@H](O)[C@H](O)[C@H]3O)[C@@H](O[C@@H]3O[C@H](CO[C@H]4OC[C@@H](O)[C@H](O)[C@H]4O)[C@@H](O)[C@H](O)[C@H]3O)[C@H](O)[C@H]2O)[C@H](O)[C@H]1O)[C@H](O)[C@@H](O)CO; assay: as above; format: biochemical, Phaeoacremonium minimum; conditions: 50 mM sodium phosphate pH 4.5, 60 °C, 5 min, 0.0125-0.8 mM substrate
From the text: bicinchoninate reducing-sugar assay, Michaelis-Menten nonlinear regression on PmIPase

Molecule	Km [1] [µM]	kcat [1] [s⁻¹]	kcat/Km [1] [M⁻¹ s⁻¹]	Km [2] [µM]	kcat [2] [s⁻¹]	kcat/Km [2] [M⁻¹ s⁻¹]
IpeA (Aspergillus oryzae RIB40)	629 ± 51	586 ± 16	931000			
PmIPase (Phaeoacremonium minimum UCRPA7) (protein, synthetic codon-optimized gene, secreted from Pichia pastoris X-33 (pGAPZalpha A), Myc and His6 tags kept; full length 777 aa (2334 bp), predicted 24-aa N-terminal signal peptide absent from calculated mass 85 kDa; N-glycosylated, ~101 kDa on SDS/PAGE; putative nucleophile Asp-299, acid/base Glu-523) VPVYKNPNATVDDRIADLLKRMTIEDKTAQLIQGDISNWINTTDGTFNATGLEWNMKYRASMFYVGYPTNWSTISNGVKIAQDYLVHNTTLGIPALVQSEGIHGFLIPNATIFNSPIAQACSWNPELVEKMGKAIAQESLALGVNNLFAPLGDLARELRFGRVEETYGEDGYLSGEMAYSYVKGLQSGNVAAMVKHFAAFATPEQGVNTAPVHGGERELLTTYLPSYKRAIIDAGAYTIMSAYHCYDGVPAVADYHVLTEILRDSWGFKYFVMSDAGGTDRLCNSFGMCEASPIDSEAVTSMVLPSGNDVEMGGGSYNFQKIPEMVAAGKLDEKLVDQAVSRVLRVKFEMGLFEKPYQGVAEDEASKYINTKETIELARQLDTESIVLLENHEDLLPLKKSAKIAVIGPMAHGYMNYGDYVPYRSQYRGVTPLDGIRAAVDDESSVSYAQGCERWSNDESGFPEAIAAAEGADVAVVVVGTWSRDQGELWQNLNATTGEHIDVASLNLVGAMPRLVSAIINTGKPTVVVFSSGKPVTEPWISTNASALVQQFYPSEQGGNALADVLFGDYNPSGRLSVSFPYDVGTTPIYYDYLNSARAWPNPGHAYPNGTLVFGSNYVLNTPLPLYDFGYGKSYSTFSYSEITLSKSTASSSDTVTVSVDVTNNSTRDGTEVVQLYVKDLVSSVVVPNKQLKGFAKIPIAAGATETVKLDLKVADLGLWDIKYNYVVEPGNFTIFIGSSSADFRANTTLTVV				47.5 ± 4.8	101 ± 3	2.13e+06
